In article PMC9850916 (Biochemistry, 2022):

Tests used:
Experiment in all cases: SPR
[1] = molecular target: papain-digested Fc fragment of commercially available rituximab (human, N-glycosylated)
[2] = molecular target: IgG1-Fc fragment produced by Expi293 cells (human, N-glycosylated)
[3] = molecular target: maltose-binding protein-linked IgG1-Fc fragment ( | human, N-glycosylated Fc)

B1: mutant human FcγRIIIa (V158) ectodomain (amino acid residues 1–175) with nine amino acid mutations a (receptor)
chain: RTEDLPKAEVILEPQWNRVLEKDSVTLKCRGAYSPEDNSTQWFHNESLISSQASSYLIDAATVDDSGEYRCQTSLSTLSDPVQLEVHIGWLLLQAPRWEFKEGDPIHLRCHSWKNTALHKVTYLQNGKGRKYFHHNSDFYIPKATLKDSGSYSCRGLVGSKNVSSETVNITITQG
Kd [1]: 1660 nM | koff [1]: 0.0721 s⁻¹ | kon [1]: 43900 M⁻¹ s⁻¹ | Kd [2]: 1680 nM | koff [2]: 0.0802 s⁻¹ | kon [2]: 47800 M⁻¹ s⁻¹ | Kd [3]: 3470 nM | koff [3]: 0.0635 s⁻¹ | kon [3]: 18400 M⁻¹ s⁻¹
